Values quoted from earlier work, collected in patent publication US20200276303A1, “Combination Therapies and Uses for Treatment of Demyelinating Disorders” (Biogen MA Inc., priority 2012, published 2020).

Conditions: for Disease activity measured by brain lesions (MRI scans) and relapse rate compared to placebo: Phase 2 clinical studies in relapse remitting MS

| Molecule | Disease activity measured by brain lesions (MRI scans) and relapse rate compared to placebo | also measured |
| --- | --- | --- |
| ocrelizumab: antibody against CD20 | statistically significant reduction | – |
| alemtuzumab: antibody against CD52 | – | Phase III studies comparing with Rebif (high-dose subcutaneous interferon beta-1a) (patients with relapsing-remitting MS (RRMS)): positive results |
| rituximab: antibody against CD20 | statistically significant reduction | – |
| Daclizumab: therapeutic humanized monoclonal antibody to the alpha subunit of the IL-2 receptor of T cells (antibody, chains of the INN, looked up, V domains shown) VH: QVQLVQSGAEVKKPGSSVKVSCKASGYTFTSYRMHWVRQAPGQGLEWIGYINPSTGYTEYNQKFKDKATITADESTNTAYMELSSLRSEDTAVYYCARGGGVFDYWGQGTLVTVSS VL: DIQMTQSPSTLSASVGDRVTITCSASSSISYMHWYQQKPGKAPKLLIYTTSNLASGVPARFSGSGSGTEFTLTISSLQPDDFATYYCHQRSTYPLTFGQGTKVEVK | – | Reducing lesions and improving clinical scores (patients with multiple sclerosis not controlled with interferon): effective |
